B1: 12A11 scFv (scFv)
scFv: DVQLQESGPGLVKPSQSLSLTCSVTGYSITGGYYWNWIRQFPGNKLEWMGYISYDGSNNYNPSLKNRISITRDTSKNQFFLKLNSVTTEDTATYYCARNMGLWYFDVWGTGTPVTVSAVDLKSGGSTSGSGKPGSGEGSSGSARQIVLTQSPANLSASPGEKVTMTCSASSSVSYMHWYQQKPGSSPKPWIYATSNLASGVPARFSGSGSGTSYSLTISRMEAEDAATYYCQQWSSYPPMYTFGGGTKLELK
notes: mouse
B2: 7C8 scFv (scFv)
scFv: LQLKQSGPGLVKPSQSLSLTCSVTGYSITSGYYWYWIRQFPGNKLEWMGYISYDGSNNYNPSLKNRISITRDTSKNQFFLKLNSVTTEDTATYYCARNLGLWYFDVWGTGTPLTVSSVDLKSGGSTSGSGKPGSGEGSSGSAREIVLTQSPAILSASPGEKVTMTCRASSSVRYMHWYQQKPGSSPKPWIYATSNLASGVPARFSGSGSGTSYSLTISRVEAEDAATYYCQQWSGNAPTFGGGTKLEIK
notes: mouse
B3: 4C10 scFv (scFv, V domains shown)
VH: QVQLVESGGGAVQPGESLRLSCAASGFTFSGFDMHWVRQSPGRGLEWVARISHDGSMADYADSLRGRFTISRDNPKNTLYLHMNSLRVEDTALYYCAKDRWRSGSYPAFEKWGQGTMVTVSS
VL: QSVPTQPASVSGSPGQSITISCTGTSSDVGAYNYVSWYQQHPGKAPKLMIYDVSDRPSGVSNRFSGSKSGNTASLTISGLQAEDEADYYCSSYTSSSTYVFGTGTKLTVL
notes: human
B4: 1D2 scFv (scFv)
scFv: QVQLKESGAELMKPGASVKLSCKATGYTFTGYWIEWVKQRPGHGLEWIGEILPGSGSTNYNEKFKGKATFTADTSSNTAYMQLSSLTTEDSAIYYCASIYYGHDYWGQGTTLTVSSVDLKSGGSTSGSGKPGSGEGSSGSARDIVMTQSPKFMSTSVGDRVSVTCKASQNVGTNVAWYQQKPGQSPKALIYSASYRYSGVPDRFTGSGSGTDFTLTISNVQSEDLAEYFCQQYNSYPYTFGGGTKLEIK
notes: mouse
B5: 4C2 scFv (scFv, V domains shown)
VH: EVQLVQSGGNLVQPGGSLRLSCTASGFIFSNHWMQWVRQIPGKGLMWVSRINDSGRSTSYAGFVKGRFTMSRDNAKNTLFLQMNSLTAEDTGVYYCVRETWEVLGHLGYEVLDHWGLGTLVTVSS
VL: DIVMTQSPSSLSASVGDRVTITCRASQGISSYLAWYQQKPGKAPKLLIYAASTLQSGVPSRFSGSGSGTEFTLTISSLQPEDFATYYCQQLNSYPRTFGQGTKVDIK
notes: human
B6: 1D8 scFv (scFv)
scFv: EVQLQESGAELVRPGTSVKLSCKASGYTFTSYWMHWVKQRPGQGLEWIGVIDPSDSYTNYNQKFKGKATLTVDTSSSTAYMQLSSLTSEDSAVYYCARGSSGYVNYWGQGTTLTVSSVDLKSGGSTSGSGKPGSGEGSSGSARDIVMSQSPASLAVSLGQRATISCRASESVDYDGDSYMNWYQQKPGQPPKLLIYAASNLESGIPARFSGSGSGTDFTLNIHPVEEEDAATYYCLQSNEAPWTFGGGTKLEIK
notes: mouse
B7: ING2 scFv (scFv, V domains shown)
VH: QVQLVQSGAEVKKPGSSVKVSCKASGDTFNRNAIAWVRQAPGQGLEWMGRIIPNLRTTHYAQKFQGRVAITADKHTNTVFMELSSLRSEDTAVYYCARDPYYYSYMDVWGKGTTVTVSS
VL: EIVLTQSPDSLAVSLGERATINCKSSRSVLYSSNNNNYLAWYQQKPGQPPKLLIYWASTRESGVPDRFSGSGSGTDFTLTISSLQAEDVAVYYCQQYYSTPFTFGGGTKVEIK
B8: 10B4 scFv (scFv)
scFv: QVQLKESGPGLVKPSQTVSLTCTVTGYSITNGNHWWNWIRQVSGSKLEWIGYISSSGYTDINPSLKSRISITRDTSKNQLFLQLNSVTTEDIATYYCARDDGYYEALDYWGQGTSVTVSSVDLKSGGSTSGSGKPGSGEGSSGSARDIVMSQSPAIMSASPGEKVTLTCSASSSVSSNYLYWYQQKPGSSPKLWIYSTSNLASGVPARFSGSGSGTSYSLTISRVEAEDAATYYCQQWSSNPPTFGGGTKLEIK
notes: mouse
B9: 9B2 scFv (scFv)
scFv: QVQLQQSGAELVRPGASVKLSCTASGFNIEDDYMHWVKQRPEQGLEWIGRIDPANGNTEYAPKFQDKATITADTSSNTAYLQLSRLTSEDTAVYYCARGGWLGNYYAMDYWGQGTSVTVSSVDLKSGGSTSGSGKPGSGEGSSGSARDIVMTQTPLTLSVTIGQPASISCRSSQSLLHNYGNTYLHWYLQKPGQSPKLLIYKVSNRFSGVPDRFSGSGSGTDFTLKISRVEAEDLGVYFCSQGTHVPWTFGGGTKLEIK
notes: mouse
B10: 1H5 scFv (scFv)
scFv: EVQLQQSGAELVRPGTSVKLSCKASDYTFTNYWTHWVKQRPGQGLEWIGVIDPSDSYTNYNQKFKGKATLTVDTSSSTAYMQLSSLTSEDSAVYYCARGYYDTMDYWGQGTTVTVSSVDLKSGGSTSGSGKPGSGEGSSGSARDIVLTQSPASLAVSLGQRATISCRASESVDYDGDSYMNWYQQKPGQPPKLLIYAASNLESGIPARFSGSGSGTDFTLNIHPVEEEDAATYYCLQSNEAPWTFGGGTKLEIK
notes: mouse
B11: 1C8 scFv (scFv, V domains shown)
VH: QVQLQQSGAEVKKPGASVKVSCKASAFTFNSNYIHWVRLAPGQGPEWMGIINPDGGRTTYAQKFQGRITMTTDTSTYAVYMELSSLRSEDTAVYYCARGATNIPYGMSVWGQGTTVTVSS
VL: DIVMTQSPSSLSASVGDRVTITCRASQAIRNDLGWYQQEPGKAPKLLIYAASTLQSGVPSRFSGRGSGTDFTLTISSLQPEDFATYYCLQHNSYPLTFGGGTKVDIK
notes: human
B12: 1D9 scFv (scFv)
scFv: EVKLVESGGDLVKPGGSLKLSCAASGFTFSSYGMSWVRQTPDKRLEWVATISSGGSYTYYPDNVKGRFTISRDNAKNNLFLQMSHLKSEDTAMYYCARDWDYYYGSYWYFDVWGTGTSVTVSSVDLKSGGSTSGSGKPGSGEGSSGSARENVLTQSPAILSASPGEKVTMTCRASSSVSYMHWYQQKPGSSPRLLIYDTSNLASGVPVRFSGSGSGTSYSLTISRMEAEDAATYYCQQWSSYPYTFGGGTKLEIK
notes: mouse

Tests used:
Experiment in all cases: yeast scFv FACS
[1] = molecular target: BoNT/A1 holotoxin (Hall hyper) (Clostridium botulinum, UniProt P0DPI0 2-1296)
[2] = molecular target: BoNT/A2 holotoxin (FRI-H1A2) (Clostridium botulinum, UniProt Q45894 2-1296)
Sequence of BoNT/A2 holotoxin (FRI-H1A2) (Q45894 2-1296): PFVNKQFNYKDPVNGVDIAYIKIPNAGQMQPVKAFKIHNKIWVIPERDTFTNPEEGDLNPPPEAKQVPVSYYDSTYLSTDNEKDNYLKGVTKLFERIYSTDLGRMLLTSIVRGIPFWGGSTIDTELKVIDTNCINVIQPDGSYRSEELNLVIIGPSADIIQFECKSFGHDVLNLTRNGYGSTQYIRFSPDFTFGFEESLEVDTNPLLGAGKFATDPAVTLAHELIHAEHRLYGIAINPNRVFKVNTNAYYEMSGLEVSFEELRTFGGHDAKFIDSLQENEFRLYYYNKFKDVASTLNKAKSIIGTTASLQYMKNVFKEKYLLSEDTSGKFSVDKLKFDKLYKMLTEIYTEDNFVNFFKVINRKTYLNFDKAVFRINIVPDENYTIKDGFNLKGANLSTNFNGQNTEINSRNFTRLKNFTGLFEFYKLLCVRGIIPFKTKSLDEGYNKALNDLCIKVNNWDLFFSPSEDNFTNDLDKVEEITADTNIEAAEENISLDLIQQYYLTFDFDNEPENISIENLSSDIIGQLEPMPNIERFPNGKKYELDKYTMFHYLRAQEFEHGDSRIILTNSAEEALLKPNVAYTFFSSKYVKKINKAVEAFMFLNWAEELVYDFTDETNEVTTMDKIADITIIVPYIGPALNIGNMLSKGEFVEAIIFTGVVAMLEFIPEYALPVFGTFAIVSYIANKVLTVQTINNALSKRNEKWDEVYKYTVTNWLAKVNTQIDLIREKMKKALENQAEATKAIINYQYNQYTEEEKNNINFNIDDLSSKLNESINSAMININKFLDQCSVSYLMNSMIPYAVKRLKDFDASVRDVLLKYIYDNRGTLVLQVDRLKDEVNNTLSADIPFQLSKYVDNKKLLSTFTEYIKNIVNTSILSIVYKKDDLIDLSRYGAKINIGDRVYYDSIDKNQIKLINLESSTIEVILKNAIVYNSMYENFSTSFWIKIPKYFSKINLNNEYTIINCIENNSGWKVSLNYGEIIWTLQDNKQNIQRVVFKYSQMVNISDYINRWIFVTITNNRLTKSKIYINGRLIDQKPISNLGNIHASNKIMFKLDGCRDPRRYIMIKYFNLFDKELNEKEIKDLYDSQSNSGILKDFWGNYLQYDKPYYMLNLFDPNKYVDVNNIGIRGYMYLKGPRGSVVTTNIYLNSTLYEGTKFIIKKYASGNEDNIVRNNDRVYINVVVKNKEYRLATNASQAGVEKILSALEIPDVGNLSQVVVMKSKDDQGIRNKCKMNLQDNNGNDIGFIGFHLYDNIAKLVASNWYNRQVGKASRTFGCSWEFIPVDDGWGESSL

[3] = molecular target: BoNT/A light chain (recombinant) (Clostridium botulinum, UniProt P0DPI0 1-448)
BoNT/C1 holotoxin = molecular target: T1, BoNT/C1 holotoxin (Clostridium botulinum, UniProt P18640 2-1291)
T1 sequence: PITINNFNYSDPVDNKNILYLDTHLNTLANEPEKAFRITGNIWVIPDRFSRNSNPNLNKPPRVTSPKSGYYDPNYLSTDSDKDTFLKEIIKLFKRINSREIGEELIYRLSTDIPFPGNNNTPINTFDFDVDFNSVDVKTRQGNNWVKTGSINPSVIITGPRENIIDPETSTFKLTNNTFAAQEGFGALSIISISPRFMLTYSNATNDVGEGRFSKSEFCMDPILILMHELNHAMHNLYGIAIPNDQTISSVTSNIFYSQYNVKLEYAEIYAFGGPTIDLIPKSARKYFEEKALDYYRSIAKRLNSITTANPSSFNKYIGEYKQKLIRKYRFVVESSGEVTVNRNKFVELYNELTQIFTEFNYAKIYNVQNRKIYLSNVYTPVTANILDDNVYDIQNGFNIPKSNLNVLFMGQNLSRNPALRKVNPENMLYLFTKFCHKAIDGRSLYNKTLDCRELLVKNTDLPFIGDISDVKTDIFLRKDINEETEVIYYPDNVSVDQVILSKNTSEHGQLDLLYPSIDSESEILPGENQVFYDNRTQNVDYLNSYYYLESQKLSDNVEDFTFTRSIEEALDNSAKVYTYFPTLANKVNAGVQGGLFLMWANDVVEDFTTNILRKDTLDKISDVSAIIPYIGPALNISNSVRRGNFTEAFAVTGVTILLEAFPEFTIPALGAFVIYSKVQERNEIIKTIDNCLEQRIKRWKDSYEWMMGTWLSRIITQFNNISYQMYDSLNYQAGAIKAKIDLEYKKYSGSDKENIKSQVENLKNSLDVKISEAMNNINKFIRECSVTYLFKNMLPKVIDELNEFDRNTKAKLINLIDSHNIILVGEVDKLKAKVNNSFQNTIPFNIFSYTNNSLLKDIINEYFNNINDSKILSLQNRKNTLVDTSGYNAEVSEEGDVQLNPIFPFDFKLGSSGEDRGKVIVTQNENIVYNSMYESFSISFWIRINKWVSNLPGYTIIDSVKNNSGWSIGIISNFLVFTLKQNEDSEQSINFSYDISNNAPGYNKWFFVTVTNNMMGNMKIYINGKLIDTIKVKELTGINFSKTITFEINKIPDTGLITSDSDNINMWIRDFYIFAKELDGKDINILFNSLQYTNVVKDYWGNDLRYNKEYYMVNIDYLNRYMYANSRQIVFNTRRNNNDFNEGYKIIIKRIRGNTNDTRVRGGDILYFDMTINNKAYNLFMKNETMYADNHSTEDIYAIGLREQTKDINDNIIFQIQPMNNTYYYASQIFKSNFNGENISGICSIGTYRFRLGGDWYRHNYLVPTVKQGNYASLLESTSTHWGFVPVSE

| Binder | Kd [1] | Kd [2] | Kd [3] | Kd (BoNT/C1 holotoxin) | binding result [1] | binding result [2] |
| --- | --- | --- | --- | --- | --- | --- |
| B1 | 0.66 nM | 2.08 nM | 25.8 nM | – | – | – |
| B2 | 0.73 nM | 0.45 nM | 0.94 nM | – | – | – |
| B3 | – | – | – | 0.39 nM | – | – |
| B4 | – | – | 6.4 nM | – | no binding | no binding |
| B5 | – | – | – | 0.19 nM | – | – |
| B6 | – | – | 3.35 nM | – | no binding | no binding |
| B7 | 0.11 nM | 0.12 nM | > 16.3 nM | – | – | – |
| B8 | > 500 nM | 252 nM | 1.53 nM | – | – | – |
| B9 | 232 nM | 154 nM | 0.67 nM | – | – | – |
| B10 | – | – | 10.6 nM | – | no binding | no binding |
| B11 | – | – | – | 42 nM | – | – |
| B12 | – | – | 9.13 nM | – | no binding | no binding |
